The text below walks through data of article doi:10.1101/2024.04.19.590210.

The data set concerns the target TF-HIS-BBX13 (BBX13/COL15) (Arabidopsis thaliana, UniProt Q9C7E8 1-433). The data set can be described thus: EMSA.

Sequence of TF-HIS-BBX13 (BBX13/COL15) (Q9C7E8 whole entry): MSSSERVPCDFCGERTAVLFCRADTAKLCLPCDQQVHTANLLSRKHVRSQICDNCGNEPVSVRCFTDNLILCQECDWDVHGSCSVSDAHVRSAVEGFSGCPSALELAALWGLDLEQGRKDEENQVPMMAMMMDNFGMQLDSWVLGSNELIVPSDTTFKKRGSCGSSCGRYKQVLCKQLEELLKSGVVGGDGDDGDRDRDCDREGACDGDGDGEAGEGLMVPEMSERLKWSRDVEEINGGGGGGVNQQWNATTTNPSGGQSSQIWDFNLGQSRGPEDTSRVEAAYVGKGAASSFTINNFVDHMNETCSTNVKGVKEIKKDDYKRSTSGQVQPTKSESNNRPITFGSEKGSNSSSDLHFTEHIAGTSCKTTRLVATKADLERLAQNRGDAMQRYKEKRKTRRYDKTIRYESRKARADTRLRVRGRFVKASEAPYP

B1: FT-CORE2 EMSA probe (FT Biot) (dsDNA)
DNA 1: ATCAATAGACAAGAAAAAGATTGTGGTTATGATTTCACCGACCCGAGTTAATG
DNA 2: CATTAACTCGGGTCGGTGAAATCATAACCACAATCTTTTTCTTGTCTATTGAT
As for B1, the binding result was “binds”.
